Reference: patent US20220332804A1 (CSL INNOVATION, published 2022)
Residue numbers refer to the chain shown, from its start.

What was measured:
Experiment in all cases: SPR; KD relative to WT C2;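 also: biacore SPR at 37 °C, anti-C2 mAbs captured on an anti-human IgG chip, alanine or serine C2 surface mutants tested, KD from 1:1 fit compared with wild-type C2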
human C2 R519A = molecular target: T1, human C2 R519A (human, UniProt P06681 21-752)
T1 sequence: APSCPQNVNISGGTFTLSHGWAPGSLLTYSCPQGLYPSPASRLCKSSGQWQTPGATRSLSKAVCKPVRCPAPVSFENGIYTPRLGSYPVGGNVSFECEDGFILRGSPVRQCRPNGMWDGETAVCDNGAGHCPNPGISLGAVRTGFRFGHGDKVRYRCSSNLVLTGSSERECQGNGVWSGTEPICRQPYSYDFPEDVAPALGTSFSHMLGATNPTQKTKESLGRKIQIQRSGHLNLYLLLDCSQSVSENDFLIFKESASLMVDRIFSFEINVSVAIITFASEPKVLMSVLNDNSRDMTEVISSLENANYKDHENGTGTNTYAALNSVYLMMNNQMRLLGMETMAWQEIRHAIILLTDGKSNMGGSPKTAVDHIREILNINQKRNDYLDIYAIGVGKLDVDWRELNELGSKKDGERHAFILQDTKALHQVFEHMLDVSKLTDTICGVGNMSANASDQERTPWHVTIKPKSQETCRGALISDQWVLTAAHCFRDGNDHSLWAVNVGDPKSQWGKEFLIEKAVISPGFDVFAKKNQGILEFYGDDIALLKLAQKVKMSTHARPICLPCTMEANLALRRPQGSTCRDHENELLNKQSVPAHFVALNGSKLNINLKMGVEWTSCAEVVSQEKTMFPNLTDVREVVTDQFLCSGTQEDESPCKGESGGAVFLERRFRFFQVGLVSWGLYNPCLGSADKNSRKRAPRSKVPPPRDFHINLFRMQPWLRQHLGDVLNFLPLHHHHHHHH

human C2 S428A = molecular target: T2, human C2 S428A (human, UniProt P06681 21-752)
T2 sequence: T1 sequence with S408A, A499R

human C2 N403A = molecular target: T3, human C2 N403A (human, UniProt P06681 21-752)
T3 sequence: T1 sequence with N383A, A499R

human C2 H451A = molecular target: T4, human C2 H451A (human, UniProt P06681 21-752)
T4 sequence: T1 sequence with H431A, A499R

Fold diff (human C2 R519A): 1 fold
Fold diff (human C2 S428A): 2 fold
Fold diff (human C2 N403A): 1 fold
Fold diff (human C2 H451A): 4 fold
B1: RF16-214 (antibody, V domains shown)
VH: EVQLLESGGGLVQPGGSLRLSCAASGFTFSWYQMMWVRQAPGKGLEWVSRIYPSGGGTAYADSVKGRFTISRDNSKNTLYLQMNSLRAEDTAVYYCARDAGYGDNWGQGTLVTVSS
VL: QSALTQPPSVSVSPGQTASITCSGDKLGEKYASWYQQKAGQSPVMVIYQDRKRPSGIPERFSGSNSGNTATLTISGTQAMDEADYYCQAWDTRAVVFGGGTKLTVLG
